Source: patent publication US20220089784A1 (University of California, published 2022)

T1: BoNT/F1 (proteolytic BoNT/F) (Clostridium botulinum, UniProt A7GBG3 1-1278)
T1 sequence: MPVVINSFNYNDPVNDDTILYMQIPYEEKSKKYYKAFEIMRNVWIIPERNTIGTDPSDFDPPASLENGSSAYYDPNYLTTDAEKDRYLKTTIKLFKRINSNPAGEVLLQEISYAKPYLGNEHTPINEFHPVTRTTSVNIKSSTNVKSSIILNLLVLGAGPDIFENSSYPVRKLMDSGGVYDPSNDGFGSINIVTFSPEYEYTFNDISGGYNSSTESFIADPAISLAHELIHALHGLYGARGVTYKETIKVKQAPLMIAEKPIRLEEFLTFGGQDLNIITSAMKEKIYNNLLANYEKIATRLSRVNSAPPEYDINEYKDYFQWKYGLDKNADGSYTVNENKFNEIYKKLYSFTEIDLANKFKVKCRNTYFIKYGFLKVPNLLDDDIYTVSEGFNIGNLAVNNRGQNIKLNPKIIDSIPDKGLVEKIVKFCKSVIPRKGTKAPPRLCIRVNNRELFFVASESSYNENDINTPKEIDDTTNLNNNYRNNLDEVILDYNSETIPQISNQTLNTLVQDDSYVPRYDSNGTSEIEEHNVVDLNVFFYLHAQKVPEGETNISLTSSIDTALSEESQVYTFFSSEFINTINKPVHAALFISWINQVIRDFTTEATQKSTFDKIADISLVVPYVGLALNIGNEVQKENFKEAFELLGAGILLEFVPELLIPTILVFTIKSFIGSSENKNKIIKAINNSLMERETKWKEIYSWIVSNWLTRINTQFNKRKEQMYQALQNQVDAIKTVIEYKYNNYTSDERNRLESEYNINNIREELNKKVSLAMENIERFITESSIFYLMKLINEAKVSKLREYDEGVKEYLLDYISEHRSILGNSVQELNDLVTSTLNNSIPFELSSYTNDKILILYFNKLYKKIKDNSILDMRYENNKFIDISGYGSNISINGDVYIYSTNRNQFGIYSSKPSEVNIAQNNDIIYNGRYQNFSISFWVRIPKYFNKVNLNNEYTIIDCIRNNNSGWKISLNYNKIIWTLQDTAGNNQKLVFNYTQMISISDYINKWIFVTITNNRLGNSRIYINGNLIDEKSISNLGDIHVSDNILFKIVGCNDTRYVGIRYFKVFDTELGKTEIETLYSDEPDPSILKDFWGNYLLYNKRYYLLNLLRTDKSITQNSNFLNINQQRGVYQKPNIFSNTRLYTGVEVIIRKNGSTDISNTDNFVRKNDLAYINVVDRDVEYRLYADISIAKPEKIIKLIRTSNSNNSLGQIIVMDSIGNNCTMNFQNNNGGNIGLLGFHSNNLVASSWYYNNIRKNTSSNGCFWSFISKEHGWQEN

T2: BoNT/B light chain (recombinant) (Clostridium botulinum, UniProt P10844 1-441)
T2 sequence: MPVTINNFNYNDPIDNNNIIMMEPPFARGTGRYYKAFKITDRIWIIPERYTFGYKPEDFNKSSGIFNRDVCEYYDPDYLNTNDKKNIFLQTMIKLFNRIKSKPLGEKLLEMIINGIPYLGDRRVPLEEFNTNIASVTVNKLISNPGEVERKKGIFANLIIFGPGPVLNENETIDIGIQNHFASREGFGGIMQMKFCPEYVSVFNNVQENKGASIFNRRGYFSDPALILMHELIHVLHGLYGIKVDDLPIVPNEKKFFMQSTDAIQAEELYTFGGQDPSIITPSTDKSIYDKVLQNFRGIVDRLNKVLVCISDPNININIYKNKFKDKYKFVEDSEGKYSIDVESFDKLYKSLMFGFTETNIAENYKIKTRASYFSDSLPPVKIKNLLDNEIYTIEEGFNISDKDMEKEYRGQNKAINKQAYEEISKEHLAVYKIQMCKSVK

B1: 37B4 scFv (scFv, V domains shown)
VH: QVQLVQSGAEVKKPGSSVKVSCKASGGTFSSYAISWVRQAPGQGLEWMGGIIPIFGTANYAQKFQGRVTITTDTSTSTAYMELRSLRSDDTAVYYCARDEDYYDSSGYYDYWGQGTLVTVSS
VL: QTVVTQEPSLTVAPGGTVTLTCGSSAGAVTTDHYPSWFQKKPGQAPTTIIYDTTNKHSMTPGPARFSGSLLGGKAALTLSGAQPEDEAEYYCFLSYRGSRPVFGGGTKVTVL
B2: 38D11 scFv (scFv, V domains shown)
VH: QVQLQESGGGVVQPGRSLRLSCAASGFTFSSYGMHWVRQAPGKGLEWVAVIWYDGSNKYYADSVKGRFTISRDNSKNTLYLQMNSLRAEDTAVYYCARDKGWELMTNTDAFDIWGQGTLVTVSS
VL: not shown
B3: 39D1.1 scFv (scFv, V domains shown)
VH: EVQLVQSGGNLVQPGGSLRLSCAATGPIGSHWMTWVRQAPGQGLEWVANINLDGTEKFYVDSVKGRFTVSRDNRKSSVFLQMNNLRVDDTAVYYCARLQWGGYDGWLSPWGQGTLVTVSS
VL: DIVMTQSPPSLSASVGDRVSLTCRASEYIGTSLNWYQQKPGKAPKLLIYAASALHSGVPSRFSGSGSGTDFTLTISGLQPEDFATYYCQQANDLPLTFGGGTKLEIK
B4: 41A4 scFv (scFv, V domains shown)
VH: EVQLVQSGGNLVQPGGSLRLSCAATGPIGSHWMTWVRQAPGQGLEWVANINLDGTEKFYVDSVKGRFTVSRDNRKSSVFLQMNNLRVDDTAVYYCARLQWGGYDGWLSPWGQGTLVTVSS
VL: DIVMTQSPPSLSASVGDRVSLTCRASEYIGTSLNWYQQKPGKAPKLLIYAASALHSGVPSRFSGSGSGTDFTLTISGLQPEDFATYYCQQTNDLPLTFGGGTKLEIK
B5: 41B7 scFv (scFv, V domains shown)
VH: EVQLVQSGGNLVQPGGSLRLSCAATGPIGSHWMTWVRQAPGQGLEWVANINLDGTEKFYVDSVKGRFTVSRDNRKSSVFLQMNNLRVDDTAVYYCARLQWGGYDGWLSPWGQGTLVTVSS
VL: DIVMTQSPPSLSASVGDRVSLTCRASEYIGTSLNWYQQKPGTAPKLLIYAASALHSGVPSRFSGSGSGTDFTLTISGLQPEDFATYYCQQANDLPLTFGGGTKLEIK
B6: 31H3 scFv (scFv)
scFv: EVQLQQSGAELVRPGASVKMSCKASGYPFTIYWITWVKQRPGQGLEWIGEIYPGSGFTKYNEKFRSKATLTVDTSSSTAYMQLSSLTSEDSAVYYCALYGSNFDYWGQGTTLTVSSVDLKSGGSTSGSGKPGSGEGSSGSARDIVMTQSPAIMSASPGEKVTMPCSASSSVSYMHWYQQKPGTSPKRWIYDTSKLASGVPARFSGSGSGTSYSLTISRVEAEDAATYYCQQWSSHPPTFGAGTRLEIK
notes: mouse
B7: 31A5 scFv (scFv)
scFv: DVQLQESGPELVKPGASVKISCKASGYSFTDYNMNWVKQSNGKSLEWIGVINPNYGTTSYNQKFKGKATLTVDQSSSTAYMQLNSLTSEDSAVYYCARSGGTGYYFDYWGQGTTLTVSSVDLKSGGSTSGSGKPGSGEGSSGSARQIVLTQSPAILSASPGEKVTMTCRASSSVSYMHWYQQKPGSSPKAWIYATSNLASGVPARFSGSGSGTSYSLTISRVEAEDAATYYCQQWSSYPPTFGSGTKLEIK
notes: mouse
B8: 31A5.1 scFv (scFv)
scFv: DVQLQESGPELVKPGASVKISCKASGYSFTDYNMNWVKQSNGKSLEWIGVINPNYGTTSYNQKFKGKATLTVDQSSSTAYMQLNSLTSEDSAVYYCARSGGTGYYFDYWGQGTTLTVSSVDLKSGGSTSGSGKPGSGEGSSGSARQIVLTQSPAILSASPGEKVAMTCRASSSVSYMHWYQQKPGSSPKLLIYDTSNLASGVPVRFSGSGSGTSYSLTISRMEAEDAATYYCQQWSSYPPTFGGGTKLEIK
notes: mouse
B9: 31C3 scFv (scFv)
scFv: EVKLVETGPELKKPGETVKISCKASGYTFTNYGMNWVKQAPGKGLKWMGWINTNTGEPTYAEEFKGRFAFSLETSASTAFLQINNLKNEDTATYFCARGPIYYGTSYRFFDVWGTGTSVTVSSVDLKSGGSTSGSGKPGSGEGSSGSARQIVLTQSPAIMSASPGEKVTMTCRASSSVSSSYLHWYQQKPGSSPKLWIYSTSNLASGVPARFSGSGSGTSYSLTISRMEAEDAATYFCQQWSSFPPTFGGGTKLELK
notes: mouse
B10: 31G2 scFv (scFv)
scFv: QVQLQQSGAELVKPGASVKLSCTASGFNIKDTYMHWVKQRPEQGLEWIGRIDPEDGETKYAPKFQGKATITADTSSNTAYLQLSSLTSEDTAVYYCARWLLYYYAMDYWGQGTSVTVSAVDLKSGGSTSGSGKPGSGEGSSGSARQIVLTQSPALMAASPGEKVTITCSVSSSISSSNLHWYQQKSETSPKPWIYGTSNLASGVPARFSGSGSGTSYSLTISRVEAEDAATYYCHQRSSYPLTFGAGTKLEIK
notes: mouse
B11: 31E2 scFv (scFv)
scFv: EVKLVESGAELVRPGASVKLSCTASGFNIKDDYVHWVKQRPEQGLEWIGRIDPEDGETKYAPKFQGKATITADTSSNTAYLQLSSLTSEDTAVYYCALWSNWYFDVWGAGTTVTVSSVDLKSGGSTSGSGKPGSGEGSSGSAREIVLTQSPAIMSASPGEKVTMTCRASSSVSYMHWYQQKPGSSPKPWIYATSNLASGVPARFSGSGSGTSYSLTISRVEAEDAATYYCQQWTSNPPTFGGGTKLEIK
notes: mouse
B12: 31E2.20 scFv (scFv)
scFv: EVKLVESGAELVRPGASVKLSCTASGFNIKDDYVHWVKQRPEQGLEWIGRIDPEDGETKYAPKFQGKATITADTSSNTAYLQLSSLTSEDTAVYYCALWSNWYFDVWGAGTTVTVSAVDLKSGGSTSGSGKPGSGEGSSGSAREIVLTQSPEILSASPGEKVTMTCRASSSVSYMHWYQQKPGSSPKPWIYATSNLASGVPARFSGSGSGTSYSLTISSMEAEDAATYYCQQFHNYPPTFGAGTKLELK
notes: mouse
B13: 34E8B12 scFv (scFv)
scFv: QVQLVESGPDLVKPSQSLSLTCTVTGYSITSGYSWHWIRQFPGNKLEWMGYIHYSGSTNYNPSLKSRISITRDTSKNQFFLQLNSVTTEDTATYYCAVYYDYDGDYFDYWGQGTTLTVSSVDLKSGGSTSGSGKPGSGEGSSGSARDVVMTQSPAIMSASPGEKVTMTCSASSSVSYMYWFQQKPGSSPKPWIYRTSNLAPGVPARFSGSGSGTSYSLTISSMEAEDAATYYCQQWSSNPPWTFGGGTKLEIK
notes: mouse
B14: 18F2 scFv (scFv)
scFv: EVQLQQSGPELMKPGASVKISCKASGYAFSRSWMNWVKQRPGKGLEWIGRIYPGDGDTNYNGKFKDKASLTADTSSSTAYMQLSSLTSEDSAVYFCTKSEGYYHNLGAYWGQGTTVTVSSVDLKSGGSTSGSGKPGSGEGSSGSAREIVLTQSPAIMSASPGQKVTITCSASSSVSYMHWYQQKSGTSPKRWIYDTSKLASGVPARFSGSGSGTSYSLIISSMEAEDAATYYCQQWRSNPPTFGGGTRLEIK
notes: mouse

The binders below were run against T1, BoNT/F1 (proteolytic BoNT/F) (assay: yeast scFv FACS).

Going from B1 to B2, the Kd rises from 10.1 nM to 29.1 nM (2.9-fold).

B3 and B4 are within 1.5-fold of each other in Kd: 0.747 nM for the first, 0.533 nM for the second.

B5 gave a Kd of 0.892 nM.

The binders below were run against T2, BoNT/B light chain (recombinant) (assay: yeast scFv FACS).

First: B6
Second: B7
The Kd of the first is 7.3-fold lower: 1.28 nM for the first, 9.31 nM for the second. The first binds more tightly here.

Going from B8 to B9, the Kd rises from 1.75 nM to 5.27 nM (3-fold).

First: B10
Second: B11
The Kd of the first is 5.1-fold lower: 3.34 nM for the first, 17.1 nM for the second.

B12 and B13 are within 1.5-fold of each other in Kd: 1.96 nM for the first, 2.44 nM for the second.

B14 gave a Kd of 1.05 nM.
